According to paper PMC5966407, “Distinct roles of XPF-ERCC1 and Rad1-Rad10-Saw1 in replication-coupled and uncoupled inter-strand crosslink repair” (Nature Communications, 2018):

Target: Rpa1 (yeast), the large subunit of the replication protein A (RPA) complex (S. cerevisiae (endogenous in yeast …, UniProt P22336 1-621))
Assay: cell-based or functional assay

Chain of Rpa1 (yeast), the large subunit of the replication protein A (RPA) complex (S. cerevisiae (P22336 whole entry, one chain of several): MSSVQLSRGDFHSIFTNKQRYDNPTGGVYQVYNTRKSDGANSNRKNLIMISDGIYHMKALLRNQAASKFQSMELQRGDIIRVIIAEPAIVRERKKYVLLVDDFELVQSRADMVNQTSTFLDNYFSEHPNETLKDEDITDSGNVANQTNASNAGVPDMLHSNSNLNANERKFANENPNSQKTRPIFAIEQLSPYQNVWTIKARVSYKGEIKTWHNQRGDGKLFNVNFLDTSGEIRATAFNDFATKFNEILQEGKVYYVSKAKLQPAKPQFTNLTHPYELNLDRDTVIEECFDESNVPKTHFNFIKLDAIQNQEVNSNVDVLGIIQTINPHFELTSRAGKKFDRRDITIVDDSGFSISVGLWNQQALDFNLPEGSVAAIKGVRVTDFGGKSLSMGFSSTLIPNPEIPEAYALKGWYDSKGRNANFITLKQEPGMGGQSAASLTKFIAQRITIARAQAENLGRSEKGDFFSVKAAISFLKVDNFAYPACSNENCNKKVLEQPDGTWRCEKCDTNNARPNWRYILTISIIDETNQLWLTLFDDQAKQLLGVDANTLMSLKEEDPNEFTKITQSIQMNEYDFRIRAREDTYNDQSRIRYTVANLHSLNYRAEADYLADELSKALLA

B1: His-Rad1 (natural protein, S. cerevisiae, UniProt P06777 1-1100, looked up)
chain: MSQLFYQGDSDDELQEELTRQTTQASQSSKIKNEDEPDDSNHLNEVENEDSKVLDDDAVLYPLIPNEPDDIETSKPNINDIRPVDIQLTLPLPFQQKVVENSLITEDALIIMGKGLGLLDIVANLLHVLATPTSINGQLKRALVLVLNAKPIDNVRIKEALEELSWFSNTGKDDDDTAVESDDELFERPFNVVTADSLSIEKRRKLYISGGILSITSRILIVDLLSGIVHPNRVTGMLVLNADSLRHNSNESFILEIYRSKNTWGFIKAFSEAPETFVMEFSPLRTKMKELRLKNVLLWPRFRVEVSSCLNATNKTSHNKVIEVKVSLTNSMSQIQFGLMECLKKCIAELSRKNPELALDWWNMENVLDINFIRSIDSVMVPNWHRISYESKQLVKDIRFLRHLLKMLVTSDAVDFFGEIQLSLDANKPSVSRKYSESPWLLVDEAQLVISYAKKRIFYKNEYTLEENPKWEQLIHILHDISHERMTNHLQGPTLVACSDNLTCLELAKVLNASNKKRGVRQVLLNKLKWYRKQREETKKLVKEVQSQDTFPENATLNVSSTFSKEQVTTKRRRTRGASQVAAVEKLRNAGTNVDMEVVFEDHKLSEEIKKGSGDDLDDGQEENAANDSKIFEIQEQENEILIDDGDAEFDNGELEYVGDLPQHITTHFNKDLWAEHCNEYEYVDRQDEILISTFKSLNDNCSLQEMMPSYIIMFEPDISFIRQIEVYKAIVKDLQPKVYFMYYGESIEEQSHLTAIKREKDAFTKLIRENANLSHHFETNEDLSHYKNLAERKLKLSKLRKSNTRNAGGQQGFHNLTQDVVIVDTREFNASLPGLLYRYGIRVIPCMLTVGDYVITPDICLERKSISDLIGSLQNNRLANQCKKMLKYYAYPTLLIEFDEGQSFSLEPFSERRNYKNKDISTVHPISSKLSQDEIQLKLAKLVLRFPTLKIIWSSSPLQTVNIILELKLGREQPDPSNAVILGTNKVRSDFNSTAKGLKDGDNESKFKRLLNVPGVSKIDYFNLRKKIKSFNKLQKLSWNEINELINDEDLTDRIYYFLRTEKEEQEQESTDENLESPGKTTDDNALHDHHNDVPEAPV
  3′ flap cleavage by purified His-Rad1–Rad10 (200 nM) in the presence of purified yeast RPA (80 nM), in vitro endonuclease assay: ~2 fold
